{
  "source": "paper doi:10.1101/2023.01.09.523258",
  "binders": {"B1": {"name": "Albumin from chicken egg (Ovalbumin/OVA), P01012 1-386 (natural protein)", "chain": "MGSIGAASMEFCFDVFKELKVHHANENIFYCPIAIMSALAMVYLGAKDSTRTQINKVVRFDKLPGFGDSIEAQCGTSVNVHSSLRDILNQITKPNDVYSFSLASRLYAEERYPILPEYLQCVKELYRGGLEPINFQTAADQARELINSWVESQTNGIIRNVLQPSSVDSQTAMVLVNAIVFKGLWEKAFKDEDTQAMPFRVTEQESKPVQMMYQIGLFRVASMASEKMKILELPFASGTMSMLVLLPDEVSGLEQLESIINFEKLTEWTSSNVMEERKIKVYLPRMKMEEKYNLTSVLMAMGITDVFSSSANLSGISSAESLKISQAVHAAHAEINEAGREVVGSAEAGVDAASVSEEFRADHPFLFCIKHIATNAVLFFGRCVSP"}},
  "biological_target": "T1, Albumin from chicken egg (Ovalbumin/OVA) (chicken), P01012",
  "T1 chain": "B1 chain",
  "test": "native MS",
  "conditions": "remark: other sources report otherwise",
  "data": [
    {"binder": "B1", "values": [
      {"measurement": "relative abundance of the dimer", "result": "5 to 8", "unit": "%"},
      {"measurement": "stoichiometry N", "result": 2}
    ]}
  ]
}
